Key:
[1] = target: T1, hASIC1a-eYFP on CHO-K1 cells (Homo sapiens, UniProt P78348); assay: Immunocytochemistry on CHO-K1/hASIC1a cells; assay type: cell-based; details: ICC, confocal
T1 construct: overexpress the full-length hASIC1a (1-528 amino acids) protein fused with eYFP; expressed in transfected cells; host or cells: CHO-K1, transient
T1 sequence (P78348 1-528): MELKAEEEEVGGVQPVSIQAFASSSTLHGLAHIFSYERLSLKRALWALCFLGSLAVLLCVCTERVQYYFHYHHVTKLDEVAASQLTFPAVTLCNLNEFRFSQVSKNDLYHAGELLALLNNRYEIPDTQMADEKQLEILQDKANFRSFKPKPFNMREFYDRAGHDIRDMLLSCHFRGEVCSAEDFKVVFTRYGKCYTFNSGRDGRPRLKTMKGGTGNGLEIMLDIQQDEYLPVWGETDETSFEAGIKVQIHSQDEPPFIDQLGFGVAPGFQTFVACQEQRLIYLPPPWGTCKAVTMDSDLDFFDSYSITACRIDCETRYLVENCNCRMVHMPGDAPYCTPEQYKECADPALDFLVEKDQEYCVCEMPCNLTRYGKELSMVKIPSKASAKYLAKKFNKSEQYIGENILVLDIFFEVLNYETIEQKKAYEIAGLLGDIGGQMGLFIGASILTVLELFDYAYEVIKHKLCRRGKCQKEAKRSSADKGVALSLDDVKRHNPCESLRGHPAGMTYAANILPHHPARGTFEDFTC
Experimental: Cell Membrane Colocalization Studies Using Immunocytochemistry (ICC). Cells (CHO-K1) were seeded onto the poly-D-lysine-coated glass bottom 24-well plates at a concentration of 2×10^5 cells per mL. After 12 h of cultivation, the CHO-K1 cells were transfected with ASIC plasmids by Lipofectin 3000 reagent. Twenty-four hours after transfection, the cells were fixed in 4% paraformaldehyde and incubated for 30 min in a blocking solution (5% goat serum in PBS). The resulting cells were incubated with […] ASC06-IgG1 at 4° C. overnight followed by three PBS washes for 5 min each and incubation with the Alexa555-conjugated goat anti-human secondary antibody (Life Technology). After three additional PBS washes for 5 min each, the nuclei of the cells were stained with DAPI (#10236276001; Roche). The ICC analysis was performed on a laser scanning confocal microscopy (ZEISS LSM710) with a 63×N.A. 1.4 objective at 25° C. Images were collected on a 1,024×1,024-pixel EM-CCD camera. Data acquisition and analyses were performed with the ZEN 2012 professional software.
To understand whether ASC01-ASC06 specifically bind to the ASIC1a protein expressed on cell surface, the binding of the antibodies to CHO-K1/hASIC1a cells was evaluated using immunocytochemistry. The CHO-K1/hASIC1a cells overexpress the full-length hASIC1a (1-528 amino acids) protein fused with eYFP. […] It is likely that ASC01-ASC05 recognize specific ASIC1a confirmations or subpopulations.
The ASC06 antibody was converted into a full length IgG1 form (ASC06-IgG1) for further study. […] The binding of ASC06-IgG1 to CHO-K1/hASIC1a cells was evaluated using immunocytochemistry, in comparison with the ASC06 (scFv format) antibody.

[2] = system: MCAO-induced ischemic stroke model mice; assay: Middle cerebral artery occlusion (MCAO)-induced ischemic stroke model; assay type: in vivo, mouse; details: 4 μL i.c.v. 3 h after ischemia; 100 nM PcTx1 or 3.0 μg/μL ASC06-IgG1; 24 h after injection
Experimental: The Middle Cerebral Artery Occlusion (MCAO) Model. Animal care and the experimental protocols were approved by the Animal Ethics Committee of Shanghai Jiao Tong University School of Medicine, Shanghai, China. A transient ischemic stroke in the left brain hemisphere was established in male mice (C57 BL/6, 20-25 g) using middle cerebral artery occlusion (MCAO) for 1 h before reperfusion. Three hours after ischemia, a total of 4 μL of vehicle solution (PBS) in the absence or presence of neuroprotective agents) 100 nM PcTx1 or 3.0 μg/μL endotoxin-free ASC06-IgG1 ([…])) was administered by an intracerebroventricular (i.c.v.) injection on the contralateral side of the brain hemisphere. An irrelevant endotoxin-free antibody (3.0 μg/μL, […]) was used as isotype control. […] Mice were sacrificed 24 h after the i.c.v. injection. […] The infarct area was calculated by subtracting the normal area stained with TTC in the ischemic hemisphere from that of the nonischemic hemisphere. The infarct volume was calculated by summing infarction areas of all sections and multiplying by slice thickness.
To determine if the protective effect of antibody ASC06-IgG1 in vitro could be extended to pathologies in vivo, the middle cerebral artery occlusion (MCAO) model was used to study the antibody's neuroprotective effect. […] The infarct volume of the cortex and striatum were calculated 24 hours after the injection. […]

B1: ASC06-IgG1: ASC06 antibody converted into a full length IgG1 form (antibody, V domains shown)
VH: QVQLQQSGGGLVQPGGSLRLSCAASGFTFSSYAMSWVRQAPGKGLEWVSAISGSGGSTYYADSVKGRFTISRDNSKNTLYLQMNSLRAEDTAVYYCAKDSFYGYSKGDWGQGTLVTVSS
VL: QSALTQPASVSGSPGQSITISCTGTSSDVGAYNYVSWYQQQPGKAPKLMIYGVSNRPSGVSNRFSGSKSGNAASLTISGLQAEDEADYYCSSYTSSSTYVFGTGTKLTVLG
[1]
  membrane co-localization with hASIC1a: membrane co-localization with hASIC1a
[2]
  infarct volume (compared with the contralateral brain region): about 23%
